Targets include [L8K]myrArf1 (human) (UniProt P84077); [L8A]myrArf1 (human) (UniProt P84077); [F13A]myrArf1 (human) (UniProt P84077).
Test [1] concerns the target wild-type myristoylated Arf1 (WT myrArf1) (human) (UniProt P84077).
Test [2] addresses [L8A/F13A]myrArf1 (human) (UniProt P84077).

Regarding “PH, Arf GAP, and ankyrin repeats (PZA construct) of ASAP1, His-tagged (domain or fragment)”, the C50 (nM) of the GAP assay: ASAP1 PZA needed for 50% of maximum hydrolysis of [alpha-32P]GTP bound to myrArf1, LUVs with PIP2, 30°C, 3 min in test [L8K]myrArf1 (human) amounted to 0.84 nM; in test [L8A]myrArf1 (human), 0.84 nM; in test [F13A]myrArf1 (human), 2100 nM; in test [1], 0.79 nM; in test [2] it was 0.7 nM.

As to “full-length AGAP1, His-tagged (from UniProt Q9UPQ3 1-857) (enzyme)”, the C50 (nM) of the GAP assay: full-length AGAP1 needed for 50% of maximum hydrolysis of [alpha-32P]GTP bound to myrArf1, LUVs with PIP2, 30°C, 3 min in test [F13A]myrArf1 (human) came to 340 nM; in test [1] it was 1.6 nM.

For “tandem PH domains, Arf GAP, and ankyrin repeats of ARAP1 (PPZA construct), His-tagged (domain or fragment)”, the C50 (nM) of the GAP assay: ARAP1 PPZA needed for 50% of maximum hydrolysis of [alpha-32P]GTP bound to myrArf1, LUVs with PIP3, 30°C, 3 min in test [F13A]myrArf1 (human) is 210 nM; in test [1], 0.14 nM.

For the origin of these results see article PMC10994351.
